Data reported in publication PMC9482650, “Quantitative fragmentomics allow affinity mapping of interactomes” (Nature Communications, 2022).

Legend:
Test in all cases: holdup assay
Set-up in all cases: key: below the threshold = too weak to quantify, mostly under pKd 3.1 to 4
[1] = molecular target: SCRIB_3, Q14160
[2] = molecular target: MAST1, Q9Y2H9
[3] = molecular target: T1, APBA1_1, Q02410
T1 sequence (Q02410 651-752, limits assumed, looked up): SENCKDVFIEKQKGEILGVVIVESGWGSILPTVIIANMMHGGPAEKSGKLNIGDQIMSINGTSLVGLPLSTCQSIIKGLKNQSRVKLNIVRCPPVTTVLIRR

[4] = molecular target: T2, LIN7B, Q9HAP6
T2 sequence (Q9HAP6 88-185, limits assumed, looked up): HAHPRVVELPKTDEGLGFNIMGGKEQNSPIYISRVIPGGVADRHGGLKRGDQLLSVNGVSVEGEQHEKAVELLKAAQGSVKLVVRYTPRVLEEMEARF

[5] = molecular target: PDLIM1, O00151
PDLIM1, O00151, sequence (O00151 1-87): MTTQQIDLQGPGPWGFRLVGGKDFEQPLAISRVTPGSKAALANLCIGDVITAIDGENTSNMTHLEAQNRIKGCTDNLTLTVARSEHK

[6] = molecular target: SCRIB_1, Q14160
SCRIB_1, Q14160, sequence (Q14160 718-814): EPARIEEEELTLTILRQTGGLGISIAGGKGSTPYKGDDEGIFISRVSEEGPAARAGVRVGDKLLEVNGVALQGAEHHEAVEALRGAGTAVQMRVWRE

[7] = molecular target: PARD3_3, Q8TEW0
PARD3_3, Q8TEW0, sequence (Q8TEW0 582-685): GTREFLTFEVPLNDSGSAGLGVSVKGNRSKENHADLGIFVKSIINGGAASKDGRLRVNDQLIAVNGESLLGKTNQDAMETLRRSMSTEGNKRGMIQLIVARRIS

[8] = molecular target: SNX27, Q96L92
[9] = molecular target: MAGI2_5, Q86UL8
MAGI2_5, Q86UL8, sequence (Q86UL8 915-1017): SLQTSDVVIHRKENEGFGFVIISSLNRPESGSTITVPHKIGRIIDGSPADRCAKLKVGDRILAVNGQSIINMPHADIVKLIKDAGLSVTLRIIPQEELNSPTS

[10] = molecular target: GORASP1, Q9BQQ3
GORASP1, Q9BQQ3, sequence (Q9BQQ3 1-208): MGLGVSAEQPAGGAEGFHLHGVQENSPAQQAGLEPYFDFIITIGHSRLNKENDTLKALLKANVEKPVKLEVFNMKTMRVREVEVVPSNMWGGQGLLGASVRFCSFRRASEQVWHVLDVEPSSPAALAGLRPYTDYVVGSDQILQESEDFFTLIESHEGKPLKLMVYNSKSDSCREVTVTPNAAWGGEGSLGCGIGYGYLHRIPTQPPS

[11] = molecular target: CASK, O14936
CASK, O14936, sequence (O14936 487-570): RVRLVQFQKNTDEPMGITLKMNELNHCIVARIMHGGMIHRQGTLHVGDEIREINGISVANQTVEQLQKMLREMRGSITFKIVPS

[12] = molecular target: T3, GRIP1_7, Q9Y3R0
T3 sequence (Q9Y3R0 999-1096, limits assumed, looked up): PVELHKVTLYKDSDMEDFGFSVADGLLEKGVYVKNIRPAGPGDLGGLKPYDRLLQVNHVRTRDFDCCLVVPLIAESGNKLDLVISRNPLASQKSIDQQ

[13] = molecular target: AHNAK1, Q09666
AHNAK1, Q09666, sequence (Q09666 4-100): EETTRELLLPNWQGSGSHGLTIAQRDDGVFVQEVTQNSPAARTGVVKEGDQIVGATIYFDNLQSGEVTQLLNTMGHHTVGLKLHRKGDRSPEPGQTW

[14] = molecular target: PTPN3, P26045
PTPN3, P26045, sequence (P26045 505-587): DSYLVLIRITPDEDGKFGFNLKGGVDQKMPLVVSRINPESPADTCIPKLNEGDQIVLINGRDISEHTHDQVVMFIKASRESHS

[15] = molecular target: Inadl_8, Q8NI35
Inadl_8, Q8NI35, sequence (Q8NI35 1425-1530): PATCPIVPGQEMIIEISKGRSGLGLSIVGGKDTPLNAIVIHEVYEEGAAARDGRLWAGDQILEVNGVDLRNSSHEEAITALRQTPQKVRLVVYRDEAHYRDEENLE

[16] = molecular target: T4, GRIP1_2, Q9Y3R0
T4 sequence (Q9Y3R0 145-248, limits assumed, looked up): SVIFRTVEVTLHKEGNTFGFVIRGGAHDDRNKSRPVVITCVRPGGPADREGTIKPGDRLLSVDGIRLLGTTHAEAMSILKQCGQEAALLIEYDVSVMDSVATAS

[17] = molecular target: TJP1_2, Q07157
TJP1_2, Q07157, sequence (Q07157 181-274): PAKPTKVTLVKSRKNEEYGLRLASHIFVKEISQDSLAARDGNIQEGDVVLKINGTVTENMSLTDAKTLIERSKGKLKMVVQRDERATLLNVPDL

[18] = molecular target: NHERF2_2, Q15599
NHERF2_2, Q15599, sequence (Q15599 142-238): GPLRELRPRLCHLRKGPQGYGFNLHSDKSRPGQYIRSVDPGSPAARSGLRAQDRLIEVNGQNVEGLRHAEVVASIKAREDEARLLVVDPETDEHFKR

[19] = molecular target: MAGI2_3, Q86UL8
MAGI2_3, Q86UL8, sequence (Q86UL8 600-682): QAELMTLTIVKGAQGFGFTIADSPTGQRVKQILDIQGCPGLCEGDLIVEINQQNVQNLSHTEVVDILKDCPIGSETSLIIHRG

[20] = molecular target: MAGI3_2, Q5TCQ9
MAGI3_2, Q5TCQ9, sequence (Q5TCQ9 398-503): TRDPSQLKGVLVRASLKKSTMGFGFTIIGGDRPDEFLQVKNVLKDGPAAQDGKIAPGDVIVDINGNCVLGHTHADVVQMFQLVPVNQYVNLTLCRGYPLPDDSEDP

[21] = molecular target: MAST2, Q6P0Q8
MAST2, Q6P0Q8, sequence (Q6P0Q8 1099-1202): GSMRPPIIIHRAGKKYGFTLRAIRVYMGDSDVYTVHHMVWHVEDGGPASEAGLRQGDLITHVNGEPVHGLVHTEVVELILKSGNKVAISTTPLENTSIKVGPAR

[22] = molecular target: T5, LIN7C, Q9NUP9
T5 sequence (Q9NUP9 88-185, limits assumed, looked up): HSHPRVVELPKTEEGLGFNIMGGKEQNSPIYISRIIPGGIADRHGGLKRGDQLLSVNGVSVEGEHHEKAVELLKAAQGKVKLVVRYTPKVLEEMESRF

[23] = molecular target: NHERF4_1, Q86UT5-2
NHERF4_1, Q86UT5-2, sequence (Q86UT5 other isoform, or with tags, fused parts or gaps): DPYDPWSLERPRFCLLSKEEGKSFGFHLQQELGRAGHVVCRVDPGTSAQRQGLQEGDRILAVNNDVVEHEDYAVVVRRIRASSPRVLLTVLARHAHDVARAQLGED

[24] = molecular target: T6, SNTG2, Q9NY99
T6 sequence (Q9NY99 68-166, limits assumed, looked up): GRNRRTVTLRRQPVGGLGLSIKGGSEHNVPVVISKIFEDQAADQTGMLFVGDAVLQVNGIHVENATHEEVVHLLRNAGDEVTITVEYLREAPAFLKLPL

[25] = molecular target: HTRA2, O43464
HTRA2, O43464, sequence (O43464 355-458): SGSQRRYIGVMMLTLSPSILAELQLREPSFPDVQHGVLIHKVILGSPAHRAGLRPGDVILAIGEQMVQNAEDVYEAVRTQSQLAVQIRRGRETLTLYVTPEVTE

[26] = molecular target: T7, TJP3_3, O95049
T7 sequence (O95049 375-456, limits assumed, looked up): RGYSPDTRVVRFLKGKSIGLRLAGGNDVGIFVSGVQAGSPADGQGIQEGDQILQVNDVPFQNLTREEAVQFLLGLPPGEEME

[27] = molecular target: Inadl_1, Q8NI35
Inadl_1, Q8NI35, sequence (Q8NI35 113-229): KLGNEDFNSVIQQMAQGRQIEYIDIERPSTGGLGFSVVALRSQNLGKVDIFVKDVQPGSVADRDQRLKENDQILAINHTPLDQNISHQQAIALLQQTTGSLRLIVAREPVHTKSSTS

[28] = molecular target: ARHGEF12, Q9NZN5-2
ARHGEF12, Q9NZN5-2, sequence (Q9NZN5 other isoform, or with tags, fused parts or gaps): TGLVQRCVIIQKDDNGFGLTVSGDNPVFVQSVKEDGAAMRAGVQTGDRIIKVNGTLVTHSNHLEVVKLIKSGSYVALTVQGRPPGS

[29] = molecular target: SCRIB_2, Q14160
SCRIB_2, Q14160, sequence (Q14160 857-960): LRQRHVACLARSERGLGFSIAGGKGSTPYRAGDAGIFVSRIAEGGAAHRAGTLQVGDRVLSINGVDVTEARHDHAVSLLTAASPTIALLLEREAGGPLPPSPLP

[30] = molecular target: LNX1_1, Q8TBB1
LNX1_1, Q8TBB1, sequence (Q8TBB1 261-371): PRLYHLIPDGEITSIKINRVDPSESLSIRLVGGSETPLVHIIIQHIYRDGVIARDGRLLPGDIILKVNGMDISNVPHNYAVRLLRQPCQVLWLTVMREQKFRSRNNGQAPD

[31] = molecular target: T8, DLG3_3, Q92796
T8 sequence (Q92796 374-475, limits assumed, looked up): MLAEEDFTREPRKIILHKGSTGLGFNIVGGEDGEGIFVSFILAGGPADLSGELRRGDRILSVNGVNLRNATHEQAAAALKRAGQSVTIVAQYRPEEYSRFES

[32] = plain residues with an end cap or a label only (N-terminal biotin on a linker: ttds)
[33] = plain residues with an end cap or a label only (N-terminal biotin on a linker: ahx)

SCRIB_3, Q14160, sequence (Q14160 999-1103): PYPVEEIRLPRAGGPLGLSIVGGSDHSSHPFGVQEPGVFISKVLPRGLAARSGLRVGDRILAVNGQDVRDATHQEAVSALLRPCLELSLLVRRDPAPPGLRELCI
MAST1, Q9Y2H9, sequence (Q9Y2H9 962-1065): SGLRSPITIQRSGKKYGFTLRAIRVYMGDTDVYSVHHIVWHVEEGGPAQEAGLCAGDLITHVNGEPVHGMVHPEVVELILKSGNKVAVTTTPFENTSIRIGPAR

Binder: RLPKIKETTV [FRMPD4, Q14CM0]
- pKd [1, 32]: 4.88
- pKd [2, 32]: 4.26
- pKd [3, 32]: below the threshold
- pKd [4, 32]: 4.52
- pKd [5, 32]: below the threshold
- pKd [6, 32]: 4.95
- pKd [7, 32]: below the threshold
- pKd [8, 32]: 5.73
- pKd [9, 32]: 3.9
- pKd [10, 32]: below the threshold
- pKd [11, 32]: below the threshold
- pKd [12, 32]: below the threshold
- pKd [13, 32]: below the threshold
- pKd [14, 32]: 4.89
- pKd [15, 32]: 3.98
- pKd [16, 32]: below the threshold
- pKd [17, 32]: below the threshold
- pKd [18, 32]: below the threshold
- pKd [19, 32]: 4.05
- pKd [20, 32]: 5.27
- pKd [21, 32]: 4.93
- pKd [22, 32]: 5.29
- pKd [23, 32]: below the threshold
- pKd [24, 32]: 5.3
- pKd [25, 32]: below the threshold
- pKd [26, 32]: below the threshold
- pKd [27, 32]: below the threshold
- pKd [28, 32]: 4.23
- pKd [29, 32]: 4.61
- pKd [30, 32]: below the threshold
- pKd [31, 32]: 5.21

Binder: GYDWGPATDL [TJP3, O95049]
- pKd [1, 33]: 4.93
- pKd [2, 33]: 4.78
- pKd [3, 33]: below the threshold
- pKd [4, 33]: below the threshold
- pKd [5, 33]: 4.41
- pKd [6, 33]: 3.76
- pKd [7, 33]: 3.66
- pKd [8, 33]: 3.64
- pKd [9, 33]: below the threshold
- pKd [10, 33]: below the threshold
- pKd [11, 33]: below the threshold
- pKd [12, 33]: below the threshold
- pKd [13, 33]: below the threshold
- pKd [14, 33]: 4.27
- pKd [15, 33]: 3.49
- pKd [16, 33]: below the threshold
- pKd [17, 33]: below the threshold
- pKd [18, 33]: 4.64
- pKd [19, 33]: below the threshold
- pKd [20, 33]: below the threshold
- pKd [21, 33]: 5.77
- pKd [22, 33]: 3.71
- pKd [23, 33]: 3.72
- pKd [24, 33]: 4.32
- pKd [25, 33]: below the threshold
- pKd [26, 33]: below the threshold
- pKd [27, 33]: below the threshold
- pKd [28, 33]: 4.66
- pKd [29, 33]: 3.78
- pKd [30, 33]: 4.84
- pKd [31, 33]: below the threshold

Binder: HNAFLSVTTV [PDZRN4, Q6ZMN7]
- pKd [1, 33]: below the threshold
- pKd [2, 33]: 3.65
- pKd [3, 33]: 3.49
- pKd [4, 33]: below the threshold
- pKd [5, 33]: below the threshold
- pKd [6, 33]: below the threshold
- pKd [7, 33]: 3.81
- pKd [8, 33]: 3.65
- pKd [9, 33]: below the threshold
- pKd [10, 33]: below the threshold
- pKd [11, 33]: below the threshold
- pKd [12, 33]: below the threshold
- pKd [13, 33]: 3.7
- pKd [14, 33]: below the threshold
- pKd [15, 33]: 3.52
- pKd [16, 33]: below the threshold
- pKd [17, 33]: below the threshold
- pKd [18, 33]: below the threshold
- pKd [19, 33]: 3.49
- pKd [20, 33]: 3.58
- pKd [21, 33]: below the threshold
- pKd [22, 33]: 3.68
- pKd [23, 33]: 3.69
- pKd [24, 33]: 3.6
- pKd [25, 33]: below the threshold
- pKd [26, 33]: below the threshold
- pKd [27, 33]: below the threshold
- pKd [28, 33]: below the threshold
- pKd [29, 33]: 3.71
- pKd [30, 33]: below the threshold
- pKd [31, 33]: below the threshold

Binder: EVVHTPETSV [SLC16A3, O15427]
- pKd [1, 32]: 4.58
- pKd [2, 32]: 4.11
- pKd [3, 32]: below the threshold
- pKd [4, 32]: 3.61
- pKd [5, 32]: below the threshold
- pKd [6, 32]: 5.08
- pKd [7, 32]: below the threshold
- pKd [8, 32]: 5.15
- pKd [9, 32]: below the threshold
- pKd [10, 32]: below the threshold
- pKd [11, 32]: below the threshold
- pKd [12, 32]: 3.79
- pKd [13, 32]: below the threshold
- pKd [14, 32]: 4.86
- pKd [15, 32]: below the threshold
- pKd [16, 32]: below the threshold
- pKd [17, 32]: 3.83
- pKd [18, 32]: below the threshold
- pKd [19, 32]: below the threshold
- pKd [20, 32]: 4.33
- pKd [21, 32]: 5.16
- pKd [22, 32]: 4.07
- pKd [23, 32]: 4.19
- pKd [24, 32]: 4.55
- pKd [25, 32]: below the threshold
- pKd [26, 32]: below the threshold
- pKd [27, 32]: below the threshold
- pKd [28, 32]: 3.89
- pKd [29, 32]: 4.48
- pKd [30, 32]: below the threshold
- pKd [31, 32]: 4.28
